The target of the experiment is T1, carcinoembryonic antigen (CEA) expressed on LS 174T cells (human, UniProt P06731 35-685).
T1 sequence (looked up): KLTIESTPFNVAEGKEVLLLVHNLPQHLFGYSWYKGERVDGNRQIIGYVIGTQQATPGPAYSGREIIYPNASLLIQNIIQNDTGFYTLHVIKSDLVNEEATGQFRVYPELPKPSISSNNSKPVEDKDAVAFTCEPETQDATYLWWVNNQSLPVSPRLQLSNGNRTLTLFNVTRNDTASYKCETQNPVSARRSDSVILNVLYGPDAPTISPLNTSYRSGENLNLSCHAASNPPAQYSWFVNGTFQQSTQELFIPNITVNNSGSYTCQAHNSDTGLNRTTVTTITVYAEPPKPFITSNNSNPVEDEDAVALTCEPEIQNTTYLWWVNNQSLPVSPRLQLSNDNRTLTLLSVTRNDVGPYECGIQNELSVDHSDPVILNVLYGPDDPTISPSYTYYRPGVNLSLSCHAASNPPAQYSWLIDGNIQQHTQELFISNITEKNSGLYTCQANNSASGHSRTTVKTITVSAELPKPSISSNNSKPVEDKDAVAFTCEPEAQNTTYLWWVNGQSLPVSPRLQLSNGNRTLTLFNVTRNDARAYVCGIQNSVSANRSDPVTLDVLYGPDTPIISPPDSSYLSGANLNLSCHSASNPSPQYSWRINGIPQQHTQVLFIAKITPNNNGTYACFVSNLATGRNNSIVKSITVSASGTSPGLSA
Briefly: cell-based or functional assay.

B1: cAb-CEA5-βL conjugate (other)
chain: QVQLVESGGGSVQAGGSLRLSCAASGDTYGSYWMGWFRQAPGKEREGVAAINRGGGYTVYADSVKGRFTISRDTAKNTVYLQMNSLRPDDTADYYCAASGVLGGLHEDWFNYWGQGTQVTVSSAHHSEDPSSKAPKAPMGTPVSEKQLAEVVANTITPLMKAQSVPGMAVAVIYQGKPHYYTFGKADIAANKPVTPQTLFELGSISKTFTGVLGGDAIARGEISLDDAVTRYWPQLTGKQWQGIRMLDLATYTAGGLPLQVPDEVTDNASLLRFYQNWQPQWKPGTTRLYANASIGLFGALAVKPSGMPYEQAMTTRVLKPLKLDHTWINVPKAEEAHYAWGYRDGKAVRVSPGMLDAQAYGVKTNVQDMANWVMANMAPENVADASLKQGIALAQSRYWRIGSMYQGLGWEMLNWPVEANTVVEGSDSKVALAPLPVAEVNPPAPPVKASWVHKTGSTGGFGSYVAFIPEKQIGIVMLANTSYPNPARVEAAYHILEALQHHHHHH
B1: the “concentration of 125I-labelled conjugate in LS 174T tumor xenografts against other tissues in nude mice” value is > 10 fold.
